# Assay results published in patent publication US20220308072A1.
# What was measured:
# [1] = molecular target: Recombinant, his tagged full length human frataxin protein (Abcam ab95502) (human) (UniProt Q16595); test: Simoa sandwich 3-step; capture Ab-2; frataxin 1000 pg/mL
# [2] = molecular target: Recombinant, his tagged full length human frataxin protein (Abcam ab95502) (human) (UniProt Q16595); test: Simoa sandwich 2-step (120 min-5 min); capture Ab-1; Diluent 1 + 5% NCS; frataxin 200 pg/mL
# [3] = molecular target: Recombinant, his tagged full length human frataxin protein (Abcam ab95502) (human) (UniProt Q16595); test: Simoa sandwich; capture Ab-1; no helper beads; frataxin 0.686 pg/mL
# [4] = molecular target: Recombinant, his tagged full length human frataxin protein (Abcam ab95502) (human) (UniProt Q16595); test: Simoa sandwich 2-step; capture Ab-4
# [5] = molecular target: Recombinant, his tagged full length human frataxin protein (Abcam ab95502) (human) (UniProt Q16595); test: Simoa sandwich 2-step (120 min-5 min); capture Ab-1; Diluent 1 + 10% NCS; frataxin 66.7 pg/mL
# [6] = molecular target: Recombinant, his tagged full length human frataxin protein (Abcam ab95502) (human) (UniProt Q16595); test: Simoa sandwich 3-step; capture Ab-4; frataxin 1000 pg/mL
# [7] = molecular target: Recombinant, his tagged full length human frataxin protein (Abcam ab95502) (human) (UniProt Q16595); test: Simoa sandwich 2-step (120 min-5 min); capture Ab-1; Diluent 1 + 10% NCS; frataxin 22.2 pg/mL
# [8] = molecular target: Recombinant, his tagged full length human frataxin protein (Abcam ab95502) (human) (UniProt Q16595); test: Simoa sandwich 3-step; capture Ab-2
# [9] = molecular target: Recombinant, his tagged full length human frataxin protein (Abcam ab95502) (human) (UniProt Q16595); test: Simoa sandwich 2-step; capture Ab-2; frataxin 18.5 pg/mL
# [10] = molecular target: Recombinant, his tagged full length human frataxin protein (Abcam ab95502) (human) (UniProt Q16595); test: Simoa sandwich 2-step (120 min-5 min); capture Ab-1; Diluent 1 + 10% NCS; frataxin 200 pg/mL
# [11] = molecular target: Recombinant, his tagged full length human frataxin protein (Abcam ab95502) (human) (UniProt Q16595); test: Simoa sandwich 2-step (35 min-5 min); capture Ab-1; with helper beads; frataxin 6.17 pg/mL
# [12] = molecular target: Recombinant, his tagged full length human frataxin protein (Abcam ab95502) (human) (UniProt Q16595); test: Simoa sandwich 2-step; capture Ab-1; 150 pM SβG; frataxin 55.6 pg/mL
# [13] = molecular target: Recombinant, his tagged full length human frataxin protein (Abcam ab95502) (human) (UniProt Q16595); test: Simoa sandwich; capture Ab-1; no helper beads; frataxin 500 pg/mL
# [14] = molecular target: Recombinant, his tagged full length human frataxin protein (Abcam ab95502) (human) (UniProt Q16595); test: Simoa sandwich 2-step (120 min-5 min); capture Ab-1; Diluent 1 + 10% NCS; frataxin 12.3 pg/mL
# [15] = molecular target: Recombinant, his tagged full length human frataxin protein (Abcam ab95502) (human) (UniProt Q16595); test: Simoa sandwich 2-step (120 min-5 min); capture Ab-1; Diluent 1 + 10% NCS; frataxin 2.47 pg/mL
# [16] = molecular target: Recombinant, his tagged full length human frataxin protein (Abcam ab95502) (human) (UniProt Q16595); test: Simoa sandwich; capture Ab-1; no helper beads; frataxin 18.5 pg/mL
# [17] = molecular target: Recombinant, his tagged full length human frataxin protein (Abcam ab95502) (human) (UniProt Q16595); test: Simoa sandwich 2-step; capture Ab-2; frataxin 55.6 pg/mL
# [18] = molecular target: Recombinant, his tagged full length human frataxin protein (Abcam ab95502) (human) (UniProt Q16595); test: Simoa sandwich 2-step (120 min-5 min); capture Ab-1; Diluent 1 + 5% NCS; frataxin 37.0 pg/mL
# [19] = molecular target: Recombinant, his tagged full length human frataxin protein (Abcam ab95502) (human) (UniProt Q16595); test: Simoa sandwich 2-step; capture Ab-2; frataxin 1000 pg/mL
# [20] = molecular target: Recombinant, his tagged full length human frataxin protein (Abcam ab95502) (human) (UniProt Q16595); test: Simoa sandwich 2-step (120 min-5 min); capture Ab-1; Diluent 1 + 5% NCS; frataxin 111 pg/mL
# [21] = molecular target: Recombinant, his tagged full length human frataxin protein (Abcam ab95502) (human) (UniProt Q16595); test: Simoa sandwich 3-step; capture Ab-5; frataxin 1000 pg/mL
# [22] = molecular target: Recombinant, his tagged full length human frataxin protein (Abcam ab95502) (human) (UniProt Q16595); test: Simoa sandwich 2-step; capture Ab-1; frataxin 1000 pg/mL
# [23] = molecular target: Recombinant, his tagged full length human frataxin protein (Abcam ab95502) (human) (UniProt Q16595); test: Simoa sandwich 2-step (120 min-5 min); capture Ab-1; Diluent 1 + 10% NCS; frataxin 1.37 pg/mL
# [24] = molecular target: Recombinant, his tagged full length human frataxin protein (Abcam ab95502) (human) (UniProt Q16595); test: Simoa sandwich 3-step; capture Ab-4; frataxin 100 pg/mL
# [25] = molecular target: Recombinant, his tagged full length human frataxin protein (Abcam ab95502) (human) (UniProt Q16595); test: Simoa sandwich 2-step; capture Ab-2
# Sequence of UniProt Q16595 (Q16595 42-210): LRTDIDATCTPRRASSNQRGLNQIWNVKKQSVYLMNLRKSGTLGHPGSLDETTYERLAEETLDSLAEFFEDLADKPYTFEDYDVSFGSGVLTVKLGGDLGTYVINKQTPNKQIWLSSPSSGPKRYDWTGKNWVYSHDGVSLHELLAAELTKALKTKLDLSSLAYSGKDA
substance,measurement,setting,value
"Ab-3, mouse monoclonal [18A5DB1] to Frataxin (Abcam ab110328) (antibody)",Ave AEB,[1],17.2 AEB
same,S/B,[1],388
same,Ave AEB,[2],4.24 AEB
same,S/B,[2],235
same,AEB Rep1,[3],0.0328 AEB
same,AEB Rep2,[3],0.028 AEB
same,Ave AEB,[3],0.0304 AEB
same,S/B,[3],1.34
same,LOD,[4],0.34 pg/mL
same,Ave AEB,[5],0.602 AEB
same,S/B,[5],33.1
same,Ave AEB,[6],17.2 AEB
same,S/B,[6],359
same,Ave AEB,[7],0.2 AEB
same,S/B,[7],11
same,LOD,[8],1.33 pg/mL
same,Ave AEB,[9],2.15 AEB
same,S/B,[9],22.5
same,Ave AEB,[10],2.03 AEB
same,S/B,[10],112
same,AEB Rep1,[11],0.387 AEB
same,AEB Rep2,[11],0.399 AEB
same,Ave AEB,[11],0.393 AEB
same,S/B,[11],16.1
same,Ave AEB,[12],3.69 AEB
same,S/B,[12],82.3
same,AEB Rep1,[13],7.94 AEB
same,AEB Rep2,[13],5.08 AEB
same,Ave AEB,[13],6.51 AEB
same,S/B,[13],288
same,Ave AEB,[14],0.0631 AEB
same,S/B,[14],5.87
same,Ave AEB,[15],0.0444 AEB
same,S/B,[15],2.44
same,AEB Rep1,[16],0.363 AEB
same,AEB Rep2,[16],0.362 AEB
same,Ave AEB,[16],0.363 AEB
same,S/B,[16],16
same,Ave AEB,[17],5.21 AEB
same,S/B,[17],54.6
same,Ave AEB,[18],0.341 AEB
same,S/B,[18],31.1
same,Ave AEB,[19],37.3 AEB
same,S/B,[19],462
same,Ave AEB,[20],1.02 AEB
same,S/B,[20],93.1
same,Ave AEB,[21],22.9 AEB
same,S/B,[21],120
same,Ave AEB,[22],30.7 AEB
same,S/B,[22],384
same,Ave AEB,[23],0.0153 AEB
same,S/B,[23],1.42
same,Ave AEB,[24],1.05 AEB
same,S/B,[24],21.9
same,LOD,[25],0.23 pg/mL
